Results taken from patent publication US8258256 (Johns Hopkins, dated 2012).
Ends that are not written are not given here. * marks the point of attachment. Biotin = O=C1N[C@H]2[C@H](CS[C@H]2CCCCC(=O)*)N1

How the values were obtained:
[1] = molecular target: T1, His-PSMA (recombinant extracellular domain of prostate specific membrane antigen with amino-terminal His-6 … (UniProt Q04609 44-750, limits assumed)); test: phage display selection in solution on His-PSMA, three rounds, capture with anti-His magnetic beads
T1 construct: extracellular domain; Expressed in Drosophila S2 cells from pMT-His-PSMA (pMT/BiP/V5-HisA backbone) and purified on Ni-NTA; also called His-tagged PSMA; recombinant PSMA
Experimental: Phage Library Screening—Peptides from the random M13 12-mer phage library were selected using His-tagged PSMA as the target, which was then captured using magnetically labeled Anti-His Tag Antibody. To remove non-specific phage binding to Anti-His antibody and other components of the magnetic separation system, the library was depleted 2 times with the His-MACS system. First Round of Screening: The final eluate from negative screening was incubated with 0.8 μgs of PSMA for 30 mins at room temperature. 50 uls of His-MACS were added and allowed to bind for 30 mins at room temperature. The incubation mixture was loaded onto a MACS column and washed twice with 1 ml of PBS/0.1% Tween 20 (PBST). Beads containing PSMA bound to phage were collected and amplified using PhD Kit protocol (NEB, Auburn, Mass.). Second Round Screening: Negative screening was repeated as above except with more BSA (0.5%) and longer incubation (1 hr at 4° C.). 10^10 pfu from the first round of screen were then incubated with PSMA in 1% BSA for 6 hrs at 4° C. His-MACS in 3% BSA were incubated for 30 mins and bound phages were collected and amplified as in round one. For third round screening the same method was used except Mouse IgG solution (100 μgs/ml) was added to the blocking solution. Individual phage were selected and sequenced after third round of screening.
To decrease the selection of non-specific low affinity binders, phage screening was performed in solution and incorporated negative screening steps using other selection components (i.e. antibodies, magnetic beads, etc.) to remove many background binders (22). Thus, for this study the phage library was incubated with magnetically labeled Anti-His_6 (SEQ ID NO: 25) antibody […]. After negative selection steps, His-PSMA was incubated with the phage library and phages bound to His-PSMA were captured using magnetically labeled Anti-His_6 (SEQ ID NO: 25) antibody, FIG. 1.

[2] = molecular target: T1, His-PSMA (recombinant extracellular …); test: cell-based or functional assay
[3] = molecular target: T1, His-PSMA (recombinant extracellular …); test: ELISA, biotinylated peptide on immobilized PSMA or BSA
Text: (§1) Recombinant PSMA (0.625 µgs) and BSA (25 µgs/ml) were immobilized and indicated concentrations of the biotinylated […] […] Results are the mean binding in 4 replicate wells each ±S.D.

[4] = molecular target: T1, His-PSMA (recombinant extracellular …); test: phage ELISA on immobilized His-PSMA against immobilized BSA, phage at 10^10 pfu/ml, anti-M13-HRP
[5] = molecular target: T1, His-PSMA (recombinant extracellular …); test: ELISA, biotinylated peptide on immobilized PSMA against immobilized BSA
Text: as §1

T1 sequence (Q04609 other isoform, or with tags, fused parts or gaps limits assumed): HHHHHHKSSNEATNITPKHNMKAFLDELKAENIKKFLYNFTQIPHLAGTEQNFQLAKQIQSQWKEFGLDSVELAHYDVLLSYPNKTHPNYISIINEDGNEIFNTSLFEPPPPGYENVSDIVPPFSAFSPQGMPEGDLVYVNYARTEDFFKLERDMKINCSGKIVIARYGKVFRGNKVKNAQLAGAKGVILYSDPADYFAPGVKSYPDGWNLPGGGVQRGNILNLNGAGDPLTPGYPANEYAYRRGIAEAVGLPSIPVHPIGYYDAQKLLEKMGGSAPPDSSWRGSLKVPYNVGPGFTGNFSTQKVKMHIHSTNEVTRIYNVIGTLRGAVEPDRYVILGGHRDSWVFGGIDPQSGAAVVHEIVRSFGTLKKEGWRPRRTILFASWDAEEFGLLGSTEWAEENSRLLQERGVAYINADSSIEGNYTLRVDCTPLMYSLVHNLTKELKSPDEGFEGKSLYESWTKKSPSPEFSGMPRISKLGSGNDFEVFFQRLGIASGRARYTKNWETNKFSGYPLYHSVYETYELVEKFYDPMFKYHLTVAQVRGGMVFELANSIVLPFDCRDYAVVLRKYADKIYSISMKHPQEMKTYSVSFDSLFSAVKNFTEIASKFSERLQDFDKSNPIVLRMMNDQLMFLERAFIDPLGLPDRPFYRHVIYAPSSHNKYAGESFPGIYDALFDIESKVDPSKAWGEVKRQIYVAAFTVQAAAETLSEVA

B1: selected phage with insert SEQ ID NO 14 (peptide)
peptide: KSLSRHDHIHHH
modifications: not fully specified
notes: Selected in three rounds on His-PSMA; not tested singly; not shown: M13 phage coat protein III
Q: Does B1 bind [1]?
A: binds

B2: selected phage with insert SEQ ID NO 17 (peptide)
peptide: QRSPMMSRIRLP
modifications: not fully specified
notes: as for B1
Q: Does B2 bind [1]?
A: binds

B3: selected phage with insert SEQ ID NO 30 (peptide)
peptide: WTHHHSYPRPLQ
modifications: not fully specified
notes: as for B1
Q: Does B3 bind [1]?
A: binds

B4: selected phage with insert SEQ ID NO 13 (peptide)
peptide: AGFQHHPSFYRF
modifications: not fully specified
notes: as for B1
Q: Does B4 bind [1]?
A: binds

B5: dimeric WQPDTAHHWATL (SEQ ID NO:1) peptide (as used in the NAALADase assay) (peptide)
peptide: WQPDTAHHWATL
chain: Lys
modifications: not fully specified (C-terminus); printed as (WQPDTAHHWATL)2-K; also: two copies of chain 1, C-termini joined to alpha and epsilon amines of branching Lys, C-terminal label on Lys not given here
Q: Which results are given for B5?
A: fold better inhibition of PSMA than the monomer [2]: ~10 fold; inhibition of NAAG hydrolysis (NAALADase activity of PSMA), IC50 [2]: 2.2 µM

B6: selected phage with insert HNAYWHWPPSMT (SEQ ID NO 2) (peptide)
peptide: HNAYWHWPPSMT
modifications: not fully specified
notes: as for B1
Q: Does B6 bind [1]?
A: binds

B7: non-selected control peptide QMARIPKRLARHK-biotin (peptide)
peptide: QMARIPKRLARHK(Biotin)
notes: also called control consisting of a positively charged 12 amino acid peptide
Q: Does B7 bind [3]?
A: no binding

B8: selected phage with insert SEQ ID NO 29 (peptide)
peptide: GHLIPLRQPSHQ
modifications: not fully specified
notes: as for B1
Q: Does B8 bind [1]?
A: binds

B9: selected phage with insert SEQ ID NO 34 (peptide)
peptide: YRHWPIDYPPPP
modifications: not fully specified; also: displayed on M13 phage pIII
notes: as for B1
Q: Does B9 bind [1]?
A: binds

B10: WQPDTAHHWATL (SEQ ID NO:1) phage (peptide)
peptide: WQPDTAHHWATL
modifications: not fully specified
notes: Whole M13 phage particle displaying the 12-mer; tested as phage, in pfu/ml; not shown: M13 phage coat protein III
Q: How did the “fold higher binding to PSMA compared to BSA” value [4] turn out when B10 was run?
A: ~10 fold

B11: selected phage with insert SEQ ID NO 36 (peptide)
peptide: TPLPSFTDGHHT
modifications: not fully specified; also: displayed on M13 phage pIII
notes: as for B1
Q: Does B11 bind [1]?
A: binds

B12: selected phage with insert SEQ ID NO 32 (peptide)
peptide: HHEWTHHWPPPP
modifications: not fully specified; also: displayed on M13 phage pIII
notes: as for B1
Q: Does B12 bind [1]?
A: binds

B13: selected phage with insert SEQ ID NO 6 (peptide)
peptide: NSFPLMLMHHHP
modifications: not fully specified; also: displayed on M13 phage pIII
notes: as for B1
Q: Does B13 bind [1]?
A: binds

Q: With WQPDTAHHWATL [monomeric WQPDTAHHWATL (SEQ ID NO:1) peptide (as used in the NAALADase assay)] as the binder, how does the “inhibition of NAAG hydrolysis (NAALADase activity of PSMA), IC50” value [2] read?
A: 23 µM

B14: WQPDTAHHWATLK (Biotin) monomeric peptide (peptide)
peptide: WQPDTAHHWATLK(Biotin)-OH
modifications: N-terminus assumed
SMILES: CC(C)C[C@H](NC(=O)[C@@H](NC(=O)[C@H](C)NC(=O)[C@H](Cc1c[nH]c2ccccc12)NC(=O)[C@H](Cc1c[nH]cn1)NC(=O)[C@H](Cc1c[nH]cn1)NC(=O)[C@H](C)NC(=O)[C@@H](NC(=O)[C@H](CC(=O)O)NC(=O)[C@@H]1CCCN1C(=O)[C@H](CCC(N)=O)NC(=O)[C@@H](N)Cc1c[nH]c2ccccc12)[C@@H](C)O)[C@@H](C)O)C(=O)N[C@@H](CCCCNC(=O)CCCC[C@@H]1SC[C@@H]2NC(=O)N[C@@H]21)C(=O)O
notes: Synthetic, Fmoc chemistry; also called biotinylated monomeric peptide
Q: Does B14 bind [5]?
A: binds

B15: selected phage with insert SEQ ID NO 9 (peptide)
peptide: SEFIHHWTPPPS
modifications: not fully specified; also: displayed on M13 phage pIII
notes: as for B1
Q: Does B15 bind [1]?
A: binds

B16: selected phage with insert SEQ ID NO 8 (peptide)
peptide: SLDSMSPQWHAD
modifications: not fully specified; also: displayed on M13 phage pIII
notes: as for B1
Q: Does B16 bind [1]?
A: binds

B17: selected phage with insert SEQ ID NO 31 (peptide)
peptide: KHMHWHPPALNT
modifications: not fully specified
notes: as for B1
Q: Does B17 bind [1]?
A: binds

B18: selected phage with insert SEQ ID NO 4 (peptide)
peptide: YTSPHHSTTGHL
modifications: not fully specified; also: displayed on M13 phage pIII
notes: as for B1
Q: Does B18 bind [1]?
A: binds

B19: selected phage with insert SEQ ID NO 35 (peptide)
peptide: MIHTNHWWAQDR
modifications: not fully specified; also: displayed on M13 phage pIII
notes: as for B1
Q: Does B19 bind [1]?
A: binds

B20: selected phage with insert SEQ ID NO 33 (peptide)
peptide: AWPENPSRRPFT
modifications: not fully specified; also: displayed on M13 phage pIII
notes: as for B1
Q: Does B20 bind [1]?
A: binds

B21: selected phage with insert SEQ ID NO 10 (peptide)
peptide: NGFSHHAPLMRY
modifications: not fully specified
notes: as for B1
Q: Does B21 bind [1]?
A: binds
